Values of other authors in paper PMC10423694.

What was measured:
K48-diUb (Homo sapiens) = K48-diUb (Homo sapiens) (UniProt P0CG47); experiment: SPR
K63-diUb (Homo sapiens) = K63-diUb (Homo sapiens) (UniProt P0CG47); experiment: SPR
M1-diUb (Homo sapiens) = M1-diUb (Homo sapiens) (UniProt P0CG47); experiment: SPR
[1] = target: ubiquitin monomer (Homo sapiens) (UniProt P0CG47); experiment: SPR
ubiquitin (Homo sapiens) = ubiquitin (Homo sapiens) (UniProt P0CG47)

Chain of NEMO (Q9Y6K9 whole entry): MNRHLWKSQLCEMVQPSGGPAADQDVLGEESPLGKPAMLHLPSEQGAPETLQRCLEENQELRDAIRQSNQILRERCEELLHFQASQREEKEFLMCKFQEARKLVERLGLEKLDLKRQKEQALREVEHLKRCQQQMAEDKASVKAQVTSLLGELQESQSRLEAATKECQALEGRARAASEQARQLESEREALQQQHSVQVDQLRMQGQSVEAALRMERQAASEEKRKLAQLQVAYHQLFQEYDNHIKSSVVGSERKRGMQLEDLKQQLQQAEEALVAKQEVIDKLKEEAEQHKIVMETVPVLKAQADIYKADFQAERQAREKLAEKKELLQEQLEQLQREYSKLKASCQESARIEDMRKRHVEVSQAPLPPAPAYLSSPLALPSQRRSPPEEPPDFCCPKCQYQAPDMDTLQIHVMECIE
Chain of UBQLN2 UBA (Q9UHD9 578-624): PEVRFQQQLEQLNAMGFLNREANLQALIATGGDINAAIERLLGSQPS

Kd (K48-diUb (Homo sapiens)) | Kd (K63-diUb (Homo sapiens)) | Kd (M1-diUb (Homo sapiens)) | Kd [1] | Kd (ubiquitin (Homo sapiens)) | Substance
169 µM | 140 µM | 4.5 µM | 152 µM |  | NEMO (from UniProt Q9Y6K9)
 |  |  |  | 8 µM | UBQLN2 UBA (from UniProt Q9UHD9)
